According to article doi:10.1101/2021.02.24.432666:

Target: yeast TRiC subunit CCT5 (yeast) (UniProt P40413)
Assay: cryo-EM structure

stoichiometry N (subunits (single ring)): 8
Substance: yeast TRiC subunit CCT5 (from UniProt P40413 1-562) (natural protein)
